Among the data in the supplement of paper PMC10567573 are protein stability index values, retold here.

The labels stand for the following.
B1: C2CD2L (parent)
chain: EPAGSLRELGVWRSLLRLRATRAG
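Also: lentivirally expressed fusions sorted by FACS into six bins by GFP to DsRed ratio, PSI derived from sequencing read proportions per bin multiplied by bin number.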

This data set covers variants of B1. The data set can be described thus: protein stability index of a GFP-peptide fusion (GPS, HEK-293T) (PSI 1-6); higher = more stable. To be noted: c terminus: a fixed tail appended.
For EPAGSLRELGVWRSLLRLRATHAG [R22H], the protein stability index is 2.01.

EPAGSLRELGVWRSLLRLRATGAG [R22G]: the protein stability index came out at 2.36.

On to EPAGSLRELGVWRSLLRLRATDAG [R22D], for which the protein stability index was 2.3.

As to EPAGSLRELGVWRSLLRLKATRAG [R19K], the protein stability index was determined as 2.99.

For EPAGSLRELGVWRSLLRLDATRAG [R19D], the protein stability index is 2.73.

Consider EPAGSLRELGVWRSLLRLMATRAG [R19M], for which the protein stability index came out at 2.2.

Take EPAGSLRELGVWRSLLRLSATRAG [R19S]: the protein stability index stood at 3.27.

For the variant EPAGSLRELGVWRSLLRLWATRAG [R19W], the protein stability index was determined as 2.22.

EPAGSLRELGVWRSLLRLVATRAG [R19V]: the protein stability index amounted to 2.31.

For EPAGSLRELGVWRSLLRLQATRAG [R19Q], the protein stability index came to 1.98.

For the variant EPAGSLRELGVWRSLLRLLATRAG [R19L], the protein stability index worked out at 2.95.

Regarding EPAGSLRELGVWRSLLRLTATRAG [R19T], the protein stability index was found to be 2.91.

As for EPAGSLRELGVWRSLLRLYATRAG [R19Y], the protein stability index came to 1.48.

Take EPAGSLRELGVWRSLLRLHATRAG [R19H]: the protein stability index is 1.85.

For EPAGSLRELGVWRSLLRLIATRAG [R19I], the protein stability index turned out to be 2.24.

For EPAGSLRELGVWRSLLRLRATRAQ [G24Q], the protein stability index turned out to be 2.77.

As for EPAGSLRELGVWRSLLRLRATRAV [G24V], the protein stability index stood at 2.25.

For the variant EPAGSLRELGVWRSLLRLRATRAD [G24D], the protein stability index worked out at 2.66.

Turning to EPAGSLRELGVWRSLLRLRATRAF [G24F], the protein stability index turned out to be 2.11.

EPAGSLRELGVWRSLLRLRATRAA [G24A]: the protein stability index is 2.89.

Consider EPAGSLRELGVWRSLLRLRATRAP [G24P], for which the protein stability index came to 1.96.

EPAGSLRELGVWRSLLRLRATRAY [G24Y]: the protein stability index came out at 1.99.

EPAGSLRELGVWRSLLRLRATRAN [G24N]: the protein stability index amounted to 1.91.

Take EPAGSLRELGVWRSLLRLRATRAI [G24I]: the protein stability index stood at 1.97.

Take EPAGSLRELGVWRSLLRLRATRAC [G24C]: the protein stability index is 2.99.

EPAGSLRELGVWRSLLRLRATRAW [G24W]: the protein stability index came to 3.29.

Regarding EPAGSLRELGVWRSLLRLRATRAL [G24L], the protein stability index is 2.87.

For EPAGSLRELGVWDSLLRLRATRAG [R13D], the protein stability index worked out at 2.62.

Turning to EPAGSLRELGVWPSLLRLRATRAG [R13P], the protein stability index is 2.55.

Regarding EPAGSLRELGVWFSLLRLRATRAG [R13F], the protein stability index was 1.81.

With EPAGSLRELGVWQSLLRLRATRAG [R13Q], the protein stability index is 2.56.

Turning to EPAGSLRELGVWTSLLRLRATRAG [R13T], the protein stability index is 2.05.

As for EPAGSLRELGVWYSLLRLRATRAG [R13Y], the protein stability index is 1.91.

Regarding EPAGSLRELGVWHSLLRLRATRAG [R13H], the protein stability index was 2.86.

On to EPAGSLRELGVWRSELRLRATRAG [L15E], for which the protein stability index turned out to be 4.27.

As for EPAGSLRELGVWRSPLRLRATRAG [L15P], the protein stability index is 3.76.

As to EPAGSLRELGVWRSNLRLRATRAG [L15N], the protein stability index was determined as 3.47.

Take EPAGSLRELGVWRSDLRLRATRAG [L15D]: the protein stability index came to 3.67.

As to EPAGSLRELGVWRSTLRLRATRAG [L15T], the protein stability index stood at 2.5.

Consider EPAGSLRELGVWRSQLRLRATRAG [L15Q], for which the protein stability index was determined as 3.84.

As for EPAGSLRELGVWRSGLRLRATRAG [L15G], the protein stability index was 3.51.

Turning to EPAGSLRELGVWRSMLRLRATRAG [L15M], the protein stability index stood at 2.48.

For the variant EPAGSLRELGVWRSKLRLRATRAG [L15K], the protein stability index stood at 2.96.

In the case of EPAGSLRELGVWRWLLRLRATRAG [S14W], the protein stability index was determined as 2.5.

As for EPAGSLRELGVWRLLLRLRATRAG [S14L], the protein stability index was found to be 1.33.

On to EPAGSLRELGVWRDLLRLRATRAG [S14D], for which the protein stability index is 1.56.

Turning to EPAGSLRELGVWRALLRLRATRAG [S14A], the protein stability index stood at 1.66.

As for EPAGSLRELGVWRQLLRLRATRAG [S14Q], the protein stability index turned out to be 2.12.

On to EPAGSLRELGVWRGLLRLRATRAG [S14G], for which the protein stability index turned out to be 1.42.

In the case of EPAGSLRELGVWRPLLRLRATRAG [S14P], the protein stability index worked out at 2.98.

Consider EPAGSLRELGVWRRLLRLRATRAG [S14R], for which the protein stability index came out at 1.91.

For the variant EPAGSLRELGVWRFLLRLRATRAG [S14F], the protein stability index was 2.14.

With EPAGSLRELGVWRMLLRLRATRAG [S14M], the protein stability index is 2.41.

With EPAGSLRELGVWRVLLRLRATRAG [S14V], the protein stability index is 1.02.

On to EPAGSLRELGVWRELLRLRATRAG [S14E], for which the protein stability index came out at 2.47.

Take EPAGSLRELGVWRKLLRLRATRAG [S14K]: the protein stability index amounted to 1.96.

As to EPAGSLRELGVWRSLLRLRAFRAG [T21F], the protein stability index amounted to 1.96.

Take EPAGSLRELGVWRSLLRLRACRAG [T21C]: the protein stability index stood at 2.07.

Take EPAGSLRELGVWRSLLRLRALRAG [T21L]: the protein stability index was found to be 2.12.

Consider EPAGSLRELGVWRSLLRLRAIRAG [T21I], for which the protein stability index is 2.84.

On to EPAGSLRELGVWRSLLRLRAWRAG [T21W], for which the protein stability index was determined as 1.31.

EPAGSLRELGVWRSLLRLRAYRAG [T21Y]: the protein stability index was 2.42.

Turning to EPAGSLRELGVWRSLLRLRAKRAG [T21K], the protein stability index was found to be 2.97.

Take EPAGSLRELGVWRSLLRLRAMRAG [T21M]: the protein stability index was 2.3.

With EPAGSLRELGVWRSLLRLRAVRAG [T21V], the protein stability index stood at 1.7.

Consider EPAGSLRELGVWRSLLRLRSTRAG [A20S], for which the protein stability index is 1.94.

Turning to EPAGSLRELGVWRSLLRLRTTRAG [A20T], the protein stability index is 1.85.

EPAGSLRELGVWRSLLRLRQTRAG [A20Q]: the protein stability index is 2.04.

As for EPAGSLRELGVWRSLLRLRETRAG [A20E], the protein stability index turned out to be 3.

On to EPAGSLRELGVWRSLLRLRMTRAG [A20M], for which the protein stability index stood at 2.48.

As to EPAGSLRELGVWRSLLRLRHTRAG [A20H], the protein stability index amounted to 2.67.

As to EPAGSLRELGVWRSLLRLRDTRAG [A20D], the protein stability index was found to be 3.34.

For EPAGSLRELGVWRSLLRLRPTRAG [A20P], the protein stability index came to 3.18.

For the variant EPAGSLRELGVWRSLLRLRLTRAG [A20L], the protein stability index is 2.58.

Turning to EPAGSLRELGVWRSLIRLRATRAG [L16I], the protein stability index stood at 2.36.

Take EPAGSLRELGVWRSLTRLRATRAG [L16T]: the protein stability index is 2.74.

In the case of EPAGSLRELGVWRSLFRLRATRAG [L16F], the protein stability index was 2.26.

As to EPAGSLRELGVWRSLYRLRATRAG [L16Y], the protein stability index was 2.3.

As to EPAGSLRELGVWRSLRRLRATRAG [L16R], the protein stability index amounted to 2.57.

Turning to EPAGSLRELGVWRSLGRLRATRAG [L16G], the protein stability index was found to be 3.32.

As to EPAGSLRELGVWRSLKRLRATRAG [L16K], the protein stability index came to 3.56.

Turning to EPAGSLRELGVWRSLPRLRATRAG [L16P], the protein stability index is 4.09.

As for EPAGSLRELGVWRSLLRLRATRQG [A23Q], the protein stability index was 2.23.

Turning to EPAGSLRELGVWRSLLRLRATRRG [A23R], the protein stability index turned out to be 3.33.

EPAGSLRELGVWRSLLRLRATRWG [A23W]: the protein stability index is 2.28.

EPAGSLRELGVWRSLLRLRATRFG [A23F]: the protein stability index was found to be 1.07.

Turning to EPAGSLRELGVWRSLLRLRATRHG [A23H], the protein stability index worked out at 2.05.

Take EPAGSLRELGVWRSLLRLRATRMG [A23M]: the protein stability index turned out to be 1.62.

EPAGSLRELGVWRSLLRLRATRYG [A23Y]: the protein stability index was 2.75.

In the case of EPAGSLRELGVWRSLLRLRATRKG [A23K], the protein stability index stood at 2.94.

As to EPAGSLRELGVWRSLLRLRATRPG [A23P], the protein stability index amounted to 2.47.

As to EPAGSLRELGVWRSLLRLRATRLG [A23L], the protein stability index came out at 2.2.

With EPAGSLRELGVWRSLLRLRATRTG [A23T], the protein stability index was found to be 2.29.

Consider EPAGSLRELGVWRSLLRLRATRCG [A23C], for which the protein stability index worked out at 1.7.
